The target of assay [1] is DS-Cav1-foldon-I53-50A (respiratory syncytial virus (RSV)). The experiment in a line: SPR after heat stress of the antigen (70 °C, 1 h); 50 nM DS-Cav1.
Assay [2] addresses DS-Cav1-foldon-I53-50 nanostructure (respiratory syncytial virus (RSV)). Described as above.

Turning to D25 monoclonal antibody, the binding signal retained after 1 hour at 70 °C in assay [1] was found to be 50%; in assay [2], 80%.

The values above are taken from patent US20200397886A1.
